In article PMC10167226, “Short hydrophobic loop motifs in BRICHOS domains determine chaperone activity against amorphous protein aggregation but not against amyloid formation” (Communications Biology, 2023):
Residue numbers refer to the chain shown, from its start. Names may count otherwise.

T1: porcine heart citrate synthase (pig, UniProt P00889 28-464)
T1 construct: citrate synthase from porcine heart; Partly unfolded by incubation at 45 °C when it meets the chaperone; also called CS; source: bought: Sigma-Aldrich (porcine heart)
T1 sequence (looked up): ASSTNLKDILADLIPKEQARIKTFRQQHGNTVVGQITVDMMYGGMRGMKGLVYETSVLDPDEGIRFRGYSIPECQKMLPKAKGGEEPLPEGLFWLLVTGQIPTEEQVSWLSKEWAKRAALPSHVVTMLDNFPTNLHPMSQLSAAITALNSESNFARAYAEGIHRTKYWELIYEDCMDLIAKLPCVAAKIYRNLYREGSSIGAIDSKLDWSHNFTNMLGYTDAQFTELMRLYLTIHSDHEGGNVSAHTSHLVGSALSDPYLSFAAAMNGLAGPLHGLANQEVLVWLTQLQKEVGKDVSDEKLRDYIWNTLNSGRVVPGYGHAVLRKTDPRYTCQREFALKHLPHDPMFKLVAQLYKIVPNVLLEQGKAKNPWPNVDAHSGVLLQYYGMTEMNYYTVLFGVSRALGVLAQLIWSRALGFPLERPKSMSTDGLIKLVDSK

B1: recombinant human Bri2 BRICHOS domain, wild type (domain or fragment, UniProt Q9Y287 113-231, looked up)
chain: QTIEENIKIFEEEEVEFISVPVPEFADSDPANIVHDFNKKLTAYLDLNLDKCYVIPLNTSIVMPPRNLLELLINIKAGTYLPQSYLIHEHMVITDRIENIDHLGFFIYRLCHDKETYKL
notes: human Bri2, BRICHOS domain, residues 113 to 231; Also exists as monomers and dimers; the oligomer fraction was used with CS; also called wt Bri2 BRICHOS; rh Bri2 BRICHOS; source: recombinant, modified pET32 vector with His6-NT* tag; copies: about 18-30 (oligomers, estimated by SEC)
B2: rh Bri2 BRICHOS T206W (domain or fragment, human, UniProt Q9Y287 113-231, looked up)
chain: B1 chain with T94W
notes: also called T206W mutant; source: recombinant, modified pET32 vector with His6-NT* tag

Experiments:
[1] = biological target: the molecule itself; assay: SEC; analytical SEC of isolated oligomers, Superdex 200 increase, 10 µmol/L protein in 20 mmol/L NaPi, 0.2 mmol/L EDTA, pH 8.0; number of subunits estimated from the peak maximum and its full width at half maximum
[2] = biological target: T1, porcine heart citrate synthase; assay: SEC; 0.6 µmol/L CS incubated with 6 µmol/L rh Bri2 BRICHOS oligomers in 40 mmol/L HEPES/KOH pH 7.5 at 45 °C, then Superose 6 in 20 mmol/L NaPi pH 8.0, 0.2 mmol/L EDTA; fractions by SDS-PAGE (two bands) and native PAGE (one band); negative-stain EM of the complex; settings: both partners purified

Binder | stoichiometry N [1] | binding result [2] | binding result [1]
B1 | 18 to 30 subunits | binds | 
B2 |  |  | binds
